This note sets out measurements from paper PMC10953559.

Several values for one entry are separate records, joined by “and”; a condition that tells them apart may be missing. Equal entries are not always repeated.

The target of the assay is GroEL14 as used with the substrate proteins NanA and DapA (E. coli) (UniProt P0A6F5). Briefly: native MS; CE-MS; 6 µM GroEL14 with 6 or 12 µM substrate monomers, denatured in 6.5 M GuHCl and 9 mM DTT and diluted 30-fold into GroEL14 buffer pH 7.5 (200 mM GuHCl, 0.3 mM DTT left); no ATP, no GroES; BGE 50 mM ammonium acetate pH 6.7.

B1: dihydrodipicolinate synthase, denatured monomer (DapA) (enzyme)
chain: MFTGSIVAIVTPMDEKGNVCRASLKKLIDYHVASGTSAIVSVGTTGESATLNHDEHADVVMMTLDLADGRIPVIAGTGANATAEAISLTQRFNDSGIVGCLTVTPYYNRPSQEGLYQHFKAIAEHTDLPQILYNVPSRTGCDLLPETVGRLAKVKNIIGIKEATGNLTRVNQIKELVSDDFVLLSGDDASALDFMQLGGHGVISVTANVAARDMAQMCKLAAEGHFAEARVINQRLMPLHNKLFVEPNPIPVKWACKELGLVATDTLRLPMTPITDSGRETVRAALKHAGLL
For B1, the share of the total signal intensity, GroEL14-DapA2 complex is 80%; the stoichiometry N (DapA monomers per GroEL14) was 1 and 2.
